# Source: publication PMC12667839
# T1: GST-FOXL2-FHD (UniProt O88470 48-144)
# T1 sequence: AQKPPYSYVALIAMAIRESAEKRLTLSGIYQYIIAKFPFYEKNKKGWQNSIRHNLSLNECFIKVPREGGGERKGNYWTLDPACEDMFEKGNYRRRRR
# B1: Enh 3 wt (SBE/FBE1&2) (dsDNA)
# DNA 1: GCCTTGATGTGTCTGGCTCAGAGCTGGCTAGAAGGCCAAGGCTATATGC
# DNA 2: GCATATAGCCTTGGCCTTCTAGCCAGCTCTGAGCCAGACACATCAAGGC
# Molecular target: T1, GST-FOXL2-FHD
# Assay: EMSA
binder,measurement,value
B1,binding result,no binding
